Measurements reported in the supplement of paper PMC6757056.
± gives the standard deviation of the averaged measurements.

B1: library; a variant is named by its letters at N, in order (parent)
chain: GCUGUCACCGGAAUACCAGCAUCGUCUUGAUGCCCUUGGAAGUCCGGUCUGAUGAGUCCNNNNNGGACGAAACAGC

Experiments:
theophylline [1] = variants of: B1; test: FACS-Seq fitted mean relative fluorescence mCherry/BFP without ligand (log10 relative fluorescence); higher = higher reporter protein expression; details: HEK293T, ligand present: no
Summary of the method: (§1)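 After lentiviral transduction, HEK293T library cells bearing an mCherry ribozyme-switch reporter and an EF1α-BFP marker were enriched. They were then held for 48 h with or without ligand and sorted by mCherry/BFP into 6 bins, and each bin's genomic DNA was PCR-amplified, barcoded and MiSeq-sequenced. Fluorescence is expressed as a normalized fitted mean: the normal mean of log10(mCherry/BFP) bin counts, scaled to five spiked-in control ribozymes.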

theophylline [2] = variants of: B1; test: normalized RNA/DNA level with ligand (relative to sTRSVctl = 100) (log10 (% of sTRSVctl)); higher = less ribozyme self-cleavage, higher mRNA level; details: ligand concentration (+) RNA-Seq: 5 mM, HEK293T, reporter: mCherry (pCS4076), ligand present: yes
Summary of the method: (§2)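 Only sequences with at least 100 DNA reads were analyzed, from HEK293T cells transfected with 4 µg per 6-well well of ribozyme switch library plasmids 72 h before RNA extraction with EDTA. Any ligand was added 1 h before transfection. RNA level was defined as RNA over DNA reads, normalized to a spiked-in non-cleaving sequence or to the top sequences, then scaled and log-transformed. The top set was 25 sequences, and the scaling was ×100 followed by log10.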

theophylline [3] = variants of: B1; test: normalized RNA/DNA level without ligand (relative to sTRSVctl = 100) (log10 (% of sTRSVctl)); higher = less ribozyme self-cleavage, higher mRNA level; details: HEK293T, reporter: mCherry (pCS4076), ligand present: no
Summary of the method: as §2

theophylline [4] = variants of: B1; test: FACS-Seq fitted mean relative fluorescence mCherry/BFP with ligand (log10 relative fluorescence); ligand concentration (+) FACS-Seq: 1 mM; higher = higher reporter protein expression; details: HEK293T, ligand present: yes
Summary of the method: as §1

Variant	FACS-Seq fitted mean (log10) (theophylline [1])	normalized RNA/DNA level with ligand (log10) (theophylline [2])	normalized RNA/DNA level without ligand (log10) (theophylline [3])	FACS-Seq fitted mean (log10) (theophylline [4])
UCCUG	0.994 ± 0.063	2.02 ± 0.1	1.99 ± 0.037	0.905 ± 0.0097
UCCUU	0.983 ± 0.13	2.011 ± 0.0076	1.94 ± 0.053	1.01 ± 0.082
UCCUA	0.918 ± 0.078	2 ± 0.13	2.007 ± 0.0046	0.92 ± 0.058
UCCUC	0.414 ± 0.042	2.03 ± 0.022	2.022 ± 0.015	0.566 ± 0.064
ACCUU	1.31 ± 0.14	2.04 ± 0.038	1.95 ± 0.047	1.27 ± 0.14
ACCUG	1.02 ± 0.063	2.01 ± 0.025	1.89 ± 0.043	0.898 ± 0.044
ACCUC	0.785 ± 0.011	2.04 ± 0.034	1.98 ± 0.042	0.737 ± 0.044
ACCUA	1.18 ± 0.18	1.94 ± 0.021	1.88 ± 0.16	1.136 ± 0.0083
ACCCU	0.718 ± 0.011	2.023 ± 0.016	1.93 ± 0.091	0.587 ± 0.09
ACCCG	0.917 ± 0.11	2 ± 0.012	1.94 ± 0.12	0.973 ± 0.031
ACCCA	0.9 ± 0.021	2.02 ± 0.044	1.93 ± 0.066	0.869 ± 0.033
ACCCC	0.753 ± 0.1	2.037 ± 0.0066	1.99 ± 0.053	0.657 ± 0.08
AAUCG	0.941 ± 0.16	2.06 ± 0.06	1.87 ± 0.1	0.953 ± 0.04
AAUCU	0.634 ± 0.065	1.94 ± 0.026	1.87 ± 0.026	0.57 ± 0.049
ACGAC	1.26 ± 0.14	1.981 ± 0.0072	1.834 ± 0.018	1.19 ± 0.2
ACGAA	0.287 ± 0.046	1.97 ± 0.098	1.51 ± 0.045	0.661 ± 0.025
ACGAU	0.425 ± 0.067	2.06 ± 0.059	1.69 ± 0.15	0.552 ± 0.049
ACGAG	0.428 ± 0.049	2.05 ± 0.026	1.85 ± 0.073	0.448 ± 0.017
